# Residue numbers refer to the chain shown, from its start.
# B1: 2p957 chimeric monospecific antibody (antibody, V domains shown)
# VH: PVQLVESGGGLVQPGGSLRLSCAASGFSFRNYIMSWVRQAPGKGLEWLSSITNSGGITSYTESVKGRFTISRDNAKNTLYLQMNSLKPEDTAVYYCAQGGSDNYYRGSWGQGTQVTVSS
# notes: VHH-chimeric monospecific antibody (cAb), detected with anti-human IgG
# B2: 2p834 anti-Claudin 18.2/CD40 bispecific antibody (bispecific antibody, part only; not given: Claudin 18.2 Fab, constant regions, linker, V domains shown, not shown: another chain or arm of the molecule; a dimerising Fc or GST; small tags and cut ends)
# VHH: QSQLVESGGGLVQPGGSLRLSCAASGFAFRRYTMSWVRQAPGKGLEWVSTITHNGSITTYAESAQGRFTISRDNAKNTLYLQMNSLKPEDTAVYYCAQGGGSNYYRESWGQGTQVTVSS
# B3: 42p155 chimeric monospecific antibody (antibody, V domains shown)
# VH: B2 VHH with Q1P, R31S, S56A
# notes: VHH-chimeric monospecific antibody (cAb), detected with anti-human IgG; also called 42pl55; not shown: human constant part (Fc) of the chimeric VHH antibody
# B4: 2p1294 chimeric monospecific antibody (antibody, V domains shown)
# VH: B2 VHH with S2V, A28S, T50A, T52S, H53D, S56A, A61T
# notes: as for B1
# B5: 42p495 chimeric monospecific antibody (antibody, V domains shown)
# VH: PVQLVESGGNLVQPGGSLRLSCVAPGFTSRNSAMSWVRQAPGKGLEWVSTIYSGKSNTDYADSVKGRFTISTDNAKNTLYLHMNKLKSEDTAVYYCAKGAASDWYVPRDYWGQGTQVTVSS
# notes: as for B1
# Columns and labels:
# [1] = target: T1, human CD40 on the cell surface (human, UniProt P25942 21-277); assay: flow cytometry on Jurkat cells overexpressing human CD40, PE anti-human IgG, MFI
# T1 construct: whole, on cells; also called cell surface CD40; Jurkat-CD40 cells
# T1 sequence (P25942 21-277): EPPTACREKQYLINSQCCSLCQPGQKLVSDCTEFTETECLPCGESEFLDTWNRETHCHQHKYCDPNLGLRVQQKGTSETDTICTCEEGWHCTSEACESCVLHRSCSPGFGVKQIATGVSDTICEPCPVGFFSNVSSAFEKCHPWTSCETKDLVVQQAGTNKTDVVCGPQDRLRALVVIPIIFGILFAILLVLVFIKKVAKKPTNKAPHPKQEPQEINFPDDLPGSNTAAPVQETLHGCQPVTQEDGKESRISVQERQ
# Procedure: To evaluate their binding affinity to cell surface CD40, chimeric anti-CD40 monospecific antibodies were tested in Jurkat cell lines that overexpressed CD40 by FACS. A total number of 1×10⁵ Jurkat-CD40 cells in each well were incubated with 10-fold serially diluted antibodies starting from 100 nM for 30 minutes at 4° C. in FACS buffer. After wash by FACS buffer, PE conjugated-anti-human IgG antibody was added to each well and incubated at 4 °C for 30 minutes. After wash, MFI of PE was evaluated by MACSQuant Analyzer 16.
# [2] = target: T1, human CD40 on the cell surface; assay: flow cytometry on human monocyte-derived dendritic cells (CD11c+ gate), PE anti-human IgG Fc, MFI
# [3] = target: T2, cynomolgus CD40-His protein (cynomolgus, UniProt G7PG38 21-193); assay: ELISA, coated cynomolgus CD40-His
# T2 construct: Recombinant His-tagged protein; also called cyno CD40 antigen; not shown: His tag
# Procedure: (§1) The binding affinity of these clones to cynomolgus CD40 was also tested. Microtiter plates were coated with cynomolgus CD40-His protein at 1.0 μg/ml in PBS, 100 μl/well at 4 °C overnight, then blocked with 150 μl/well of 1% BSA. Ten-fold dilutions of 42p155, 2p834, 2p931, 42p655, 2p1294, 2p957, 42p495, 3p78, 2p415, 2p442, 2p551, 2p80 and 2p1130 antibodies starting from 100 nM were added to each well and incubated for 1 hour at RT. The plates were washed with PBS/Tween and then incubated with Anti-Human IgG (H&L) (GOAT) Antibody Peroxidase Conjugated for 30 mins at RT. After washing, the plates were developed with TMB substrate and analyzed by spectrophotometer at OD 450 nm. As shown in FIG. 1B and Table 2, all these clones bound to cynomolgus CD40 at high activity, showing good cross-reactivity between human and cynomolgus CD40 proteins.
# human CD40-His protein [4] = target: T3, human CD40-His protein (human, UniProt P25942 21-193); assay: SPR (Biacore T200), antibody captured on Protein A
# T3 construct: Recombinant His-tagged protein; also called human CD40-his tag; recombinant CD40 protein; not shown: His tag
# T3 sequence (P25942 21-193 limits assumed): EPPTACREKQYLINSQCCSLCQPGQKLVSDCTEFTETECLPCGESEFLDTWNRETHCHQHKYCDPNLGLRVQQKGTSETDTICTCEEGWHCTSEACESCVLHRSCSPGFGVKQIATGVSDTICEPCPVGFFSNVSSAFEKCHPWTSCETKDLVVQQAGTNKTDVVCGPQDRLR
# Procedure: The binding of the humanized 42pl55 and 2p442 antibodies to recombinant human CD40 protein (human CD40-his tag) was tested by Biacore and Octet, respectively, using a capture method.
# For humanized 42pl55 monoclonal antibodies, 42p155z2 and 42p155z3 were captured using Protein A chip. A serial dilution of human CD40-his tag protein was injected over captured antibody for 3 mins at a flow rate of 10 μl/min. The antigen was allowed to dissociate for 6 min. All the experiments were carried out on a Biacore T200. Data analysis was carried out using Biacore T200 evaluation software.
# human CD40-His protein [5] = target: T3, human CD40-His protein; assay: ELISA, coated human CD40-His
# Procedure: as §1, with “Briefly, microtiter” for “The binding affinity of these clones to cynomolgus CD40 was also tested. Microtiter”, “human” for “cynomolgus”, “4° C.” for “4 °C”, “nm.” for “nm. As shown in FIG. 1B and Table 2, all these clones bound to cynomolgus CD40 at high activity, showing good cross-reactivity between human and cynomolgus CD40 proteins.”
binder,measurement,setting,value
B1,EC50 (read off the curve),[1],~3 nM
B2,EC50 (read off the curve),[2],1 nM
B3,EC50,[3],0.9 nM
same,Kd,human CD40-His protein [4],86.9 nM
same,koff,human CD40-His protein [4],0.0451 s⁻¹
same,kon,human CD40-His protein [4],519000 M⁻¹ s⁻¹
same,EC50,human CD40-His protein [5],1.73 nM
same,EC50 (read off the curve),[1],~0.3 nM
B4,EC50 (read off the curve),[1],~0.3 nM
B5,EC50 (read off the curve),[1],~2 nM
